Here are results for one molecule from article PMC3208561, “Phylogenetic and Complementation Analysis of a Single-Stranded DNA Binding Protein Family from Lactococcal Phages Indicates a Non-Bacterial Origin”.

The target in this data set is T1, Orf14bIL67 (phage SSB) (Lactococcus phage bIL67, UniProt Q38257 1-123).
T1 sequence: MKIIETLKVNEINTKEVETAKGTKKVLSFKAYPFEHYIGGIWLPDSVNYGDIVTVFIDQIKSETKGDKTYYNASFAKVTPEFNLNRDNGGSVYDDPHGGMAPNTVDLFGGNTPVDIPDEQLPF
Description: EMSA; 30°C; protein up to 100 nM, 0.5 nM DNA; 20 mM Tris-HCl pH 7.5, 25 mM KCl, 1 mM EDTA, 1 mM DTT, 2.5% glycerol, 0.3 mg/ml BSA; 10 min at 30 or 38°C; 5% native PAGE in 0.25x TBE at 4°C. The conditions noted are these: protein: recombinant; tags: IMPACT-CN (intein) purification; label: 5'-32P. On the technique in general: Mobility shift assays separate free from complexed probe on a gel.

B1: 80-mer oligonucleotide (ssDNA)
DNA: TTTGTCGGTACTTTATATTCTCTTATTACTGGCTCGAAAATGCCTCTGCCTAAATTACATGTTGGCGTTGTTAAATATGGGGG
In the case of B1, the binding result is listed as “binds”.
